The record followed here is patent US20170267776A1 (published 2017).

Changes are numbered by the printed parent chain.

Test [1] deals with T1, recombinant human RSPO3 protein, biotinylated (captured on streptavidin-coated chips) (human, UniProt Q9BXY4 22-272, limits assumed, biotinylated (sites not given)).
T1 sequence: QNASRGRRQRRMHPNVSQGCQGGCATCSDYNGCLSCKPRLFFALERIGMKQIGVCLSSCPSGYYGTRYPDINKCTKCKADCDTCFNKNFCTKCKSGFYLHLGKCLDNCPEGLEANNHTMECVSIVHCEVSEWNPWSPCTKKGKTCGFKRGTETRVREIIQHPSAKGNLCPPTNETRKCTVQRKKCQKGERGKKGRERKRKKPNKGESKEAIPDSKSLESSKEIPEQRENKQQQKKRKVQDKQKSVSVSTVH
The test can be described thus: summary of Example 3 (SPR, Biacore 2000). As to the method:
The antibodies were serially diluted 2-fold from 100 nM to 0.78 nM in HBS-P (0.01M HEPES pH 7.4, 0.15M NaCl, 0.005% v/v Surfactant P20) and were injected over the chip surface. Kinetic data were collected over time and were fit using the simultaneous global fit equation to yield affinity constants (KD values) for each antibody.
(SPR reads the build-up and loss of mass on a sensor chip optically.)

Test [2] addresses T2, LGR5-Fc fusion protein (mature form containing amino acids 22-564 of human LGR5 fused to human Fc) (human, UniProt O75473 22-564).
T2 construct: range 22-564; Expressed in insect cells (baculovirus) and purified by protein A; also called soluble LGR5-Fc; not shown: human Fc
T2 sequence (looked up): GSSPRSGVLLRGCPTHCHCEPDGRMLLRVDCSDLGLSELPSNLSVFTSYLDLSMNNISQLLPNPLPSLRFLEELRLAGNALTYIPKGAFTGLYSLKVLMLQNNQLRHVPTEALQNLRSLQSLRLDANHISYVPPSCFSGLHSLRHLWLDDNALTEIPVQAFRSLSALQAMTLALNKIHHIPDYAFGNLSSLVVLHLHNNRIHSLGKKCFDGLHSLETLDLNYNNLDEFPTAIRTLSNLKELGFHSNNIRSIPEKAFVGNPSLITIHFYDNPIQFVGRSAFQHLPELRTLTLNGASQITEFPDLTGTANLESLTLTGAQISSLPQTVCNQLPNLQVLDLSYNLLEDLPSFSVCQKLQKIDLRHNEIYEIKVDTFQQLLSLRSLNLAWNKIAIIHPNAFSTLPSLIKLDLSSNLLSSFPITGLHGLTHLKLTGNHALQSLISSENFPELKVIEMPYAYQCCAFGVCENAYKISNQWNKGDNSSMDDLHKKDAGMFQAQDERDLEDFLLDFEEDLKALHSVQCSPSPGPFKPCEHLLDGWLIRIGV
The test can be described thus: SPR (Biacore 2000): RSPO-Fc immobilised on CM5 chip, soluble LGR5-Fc injected 100 nM to 0.78 nM. The procedure: Binding affinities between RSPO proteins and LGR5 were analyzed by surface plasmon resonance. A soluble LGR5-Fc construct was generated using standard recombinant DNA techniques. Specifically, amino acids 1-564 of human LGR5 were ligated in frame to human Fc and the recombinant LGR5-Fc fusion protein was expressed in insect cells using baculovirus. The LGR5-Fc fusion protein was purified from the insect medium using protein A chromatography. Cleavage of the LGR5 signal sequence results in a mature LGR5-Fc fusion protein containing amino acids 22-564 of LGR5. […] Two-fold dilutions of soluble LGR5-Fc were injected over the chip surface (100 nM to 0.78 nM). Kinetic data were collected over time using a Biacore 2000 system from Biacore Life Sciences (GE Healthcare) and the data were fit using the simultaneous global fit equation to yield affinity constants (KD values) for each RSPO protein (Table 3).

B1: anti-RSPO3 antibody 131R002 (IgG2) (antibody, V domains shown)
VH: QVQLQESGPELVKPGASVKISCKASGYTFTDYSIHWVKQNHGKSLDWIGYIYPSNGDSGYNQKFKNRATLTVDTSSSTAYLEVRRLTFEDSAVYYCATYFANYFDYWGQGTTLTVSS
VL: DIVLTQSPASLAVSLGQRATISCKASQSVDYDGDSYMNWYQQKPGQPPKLLIYAASNLESGIPARFSGSGSGTDFTLNIHPVEEEDAATYYCQQSNEDPLTFGAGTKLELKR
B1: the dissociation constant Kd – broadly, the concentration at which binding is half-saturated – in test [1] was below 10 nM.

B2: anti-RSPO3 antibody 131R003 (IgG2) (antibody, V domains shown)
VH: B1 VH with Q5K, E6Q, S76Y
VL: B1 VL
notes: also called parental 131R003
Regarding B2, in test [1], the Kd is below 10 nM.

B3: RSPO4-Fc fusion protein (full-length human RSPO4 ligated in-frame to a human Fc region) (Fc fusion, UniProt Q2I0M5 20-234, looked up)
chain: LNRRKKQVGTGLGGNCTGCIICSEENGCSTCQQRLFLFIRREGIRQYGKCLHDCPPGYFGIRGQEVNRCKKCGATCESCFSQDFCIRCKRQFYLYKGKCLPTCPPGTLAHQNTRECQGECELGPWGGWSPCTHNGKTCGSAWGLESRVREAGRAGHEEAATCQVLSESRKCPIQRPCPGERSPGQKKGRKDRRPRKDRKLDRRLDVRPRQPGLQP
notes: not shown: human Fc region
As for B3, the Kd in test [2] stood at 73 nM.
